# Source: FireProtDB (doi:10.1126/science.aai7825)
# B1: Nucleoid-associated protein YejK wild type, P33920 (protein)
# chain: MSLDINQIALHQLIKRDEQNLELVLRDSLLEPTETVVEMVAELHRVYSAKNKAYGLFSEESELAQTLRLQRQGEEDFLAFSRAATGRLRDELAKYPFADGGFVLFCHYRYLAVEYLLVAVLSNLSSMRVNENLDINPTHYLDINHADIVARIDLTEWETNPESTRYLTFLKGRVGRKVADFFMDFLGASEGLNAKAQNRGLLQAVDDFTAEAQLDKAERQNVRQQVYSYCNEQLQAGEEIELKSLSKELAGVSEVSFTEFAAEKGYELEESFPADRSTLRQLTKFAGSGGGLTINFDAMLLGERIFWDPATDTLTIKGTPPNLRDQLQRRTSGGN
# B2: Glutathione S-transferase YfcF wild type, P77544 (protein)
# chain: MSKPAITLWSDAHFFSPYVLSAWVALQEKGLSFHIKTIDLDSGEHLQPTWQGYGQTRRVPLLQIDDFELSESSAIAEYLEDRFAPPTWERIYPLDLENRARARQIQAWLRSDLMPIREERPTDVVFAGAKKAPLTAEGKASAEKLFAMAEHLLVLGQPNLFGEWCIADTDLALMINRLVLHGDEVPERLVDYATFQWQRASVQRFIALSAKQSG
# B3: Probable L,D-transpeptidase YnhG wild type, P76193 (protein)
# chain: MKRASLLTLTLIGAFSAIQAAWAVDYPLPPTGSRLVGQNQTYTVQEGDKNLQAIARRFDTAAMLILEANNTIAPVPKPGTTITIPSQLLLPDAPRQGIIVNLAELRLYYYPPGENIVQVYPIGIGLQGLETPVMETRVGQKIPNPTWTPTAGIRQRSLERGIKLPPVVPAGPNNPLGRYALRLAHGNGEYLIHGTSAPDSVGLRVSSGCIRMNAPDIKALFSSVRTGTPVKVINEPVKYSVEPNGMRYVEVHRPLSAEEQQNVQTMPYTLPAGFTQFKDNKAVDQKLVDKALYRRAGYPVSVSSGATPAASNAPSVESAQNGEPEQGNMLRVTQ
# B4: Imidazole glycerol phosphate synthase subunit HisH wild type, P60595 (protein)
# chain: MNVVILDTGCANLNSVKSAIARHGYEPKVSRDPDVVLLADKLFLPGVGTAQAAMDQVRERELFDLIKACTQPVLGICLGMQLLGRRSEESNGVDLLGIIDEDVPKMTDFGLPLPHMGWNRVYPQAGNRLFQGIEDGAYFYFVHSYAMPVNPWTIAQCNYGEPFTAAVQKDNFYGVQFHPERSGAAGAKLLKNFLEM
# B5: Uncharacterized Nudix hydrolase YfcD wild type, P65556 (protein)
# chain: MEQRRLASTEWVDIVNEENEVIAQASREQMRAQCLRHRATYIVVHDGMGKILVQRRTETKDFLPGMLDATAGGVVQADEQLLESARREAEEELGIAGVPFAEHGQFYFEDKNCRVWGALFSCVSHGPFALQEDEVSEVCWLTPEEITARCDEFTPDSLKALALWMKRNAKNEAVETETAE
# B6: dTDP-glucose 4,6-dehydratase 2 wild type, P27830 (protein)
# chain: MRKILITGGAGFIGSALVRYIINETSDAVVVVDKLTYAGNLMSLAPVAQSERFAFEKVDICDRAELARVFTEHQPDCVMHLAAESHVDRSIDGPAAFIETNIVGTYTLLEAARAYWNALTEDKKSAFRFHHISTDEVYGDLHSTDDFFTETTPYAPSSPYSASKASSDHLVRAWLRTYGLPTLITNCSNNYGPYHFPEKLIPLMILNALAGKSLPVYGNGQQIRDWLYVEDHARALYCVATTGKVGETYNIGGHNERKNLDVVETICELLEELAPNKPHGVAHYRDLITFVADRPGHDLRYAIDASKIARELGWLPQETFESGMRKTVQWYLANESWWKQVQDGSYQGERLGLKG
# B7: Ribosome-binding ATPase YchF wild type, P0ABU2 (protein)
# chain: MGFKCGIVGLPNVGKSTLFNALTKAGIEAANFPFCTIEPNTGVVPMPDPRLDQLAEIVKPQRTLPTTMEFVDIAGLVKGASKGEGLGNQFLTNIRETEAIGHVVRCFENDNIIHVSGKVNPADDIEVINTELALADLDTCERAIHRVQKKAKGGDKDAKAELAVLEKCLPQLENAGMLRALDLSAEEKAAIRYLSFLTLKPTMYIANVNEDGFENNPYLDQVREIAAKEGSVVVPVCAAVEADIAELDDEERDEFMQELGLEEPGLNRVIRAGYKLLNLQTYFTAGVKEVRAWTIPVGATAPQAAGKIHTDFEKGFIRAQTISFEDFITYKGEQGAKEAGKMRAEGKDYIVKDGDVMNFLFNV
# B8: Exodeoxyribonuclease III wild type, P09030 (protein)
# chain: MKFVSFNINGLRARPHQLEAIVEKHQPDVIGLQETKVHDDMFPLEEVAKLGYNVFYHGQKGHYGVALLTKETPIAVRRGFPGDDEEAQRRIIMAEIPSLLGNVTVINGYFPQGESRDHPIKFPAKAQFYQNLQNYLETELKRDNPVLIMGDMNISPTDLDIGIGEENRKRWLRTGKCSFLPEEREWMDRLMSWGLVDTFRHANPQTADRFSWFDYRSKGFDDNRGLRIDLLLASQPLAECCVETGIDYEIRSMEKPSDHAPVWATFRR
# B9: FKBP-type peptidyl-prolyl cis-trans isomerase FkpA wild type, P45523 (protein)
# chain: MKSLFKVTLLATTMAVALHAPITFAAEAAKPATAADSKAAFKNDDQKSAYALGASLGRYMENSLKEQEKLGIKLDKDQLIAGVQDAFADKSKLSDQEIEQTLQAFEARVKSSAQAKMEKDAADNEAKGKEYREKFAKEKGVKTSSTGLVYQVVEAGKGEAPKDSDTVVVNYKGTLIDGKEFDNSYTRGEPLSFRLDGVIPGWTEGLKNIKKGGKIKLVIPPELAYGKAGVPGIPPNSTLVFDVELLDVKPAPKADAKPEADAKAADSAKK
# B10: Elongation factor P-like protein wild type, P0A6N8 (protein)
# chain: MPRANEIKKGMVLNYNGKLLLVKDIDIQSPTARGAATLYKMRFSDVRTGLKVEERFKGDDIVDTVTLTRRYVDFSYVDGNEYVFMDKEDYTPYTFTKDQIEEELLFMPEGGMPDMQVLTWDGQLLALELPQTVDLEIVETAPGIKGASASARNKPATLSTGLVIQVPEYLSPGEKIRIHIEERRYMGRAD
# B11: Phospho-2-dehydro-3-deoxyheptonate aldolase, Phe-sensitive wild type, P0AB91 (protein)
# chain: MNYQNDDLRIKEIKELLPPVALLEKFPATENAANTVAHARKAIHKILKGNDDRLLVVIGPCSIHDPVAAKEYATRLLALREELKDELEIVMRVYFEKPRTTVGWKGLINDPHMDNSFQINDGLRIARKLLLDINDSGLPAAGEFLDMITPQYLADLMSWGAIGARTTESQVHRELASGLSCPVGFKNGTDGTIKVAIDAINAAGAPHCFLSVTKWGHSAIVNTSGNGDCHIILRGGKEPNYSAKHVAEVKEGLNKAGLPAQVMIDFSHANSSKQFKKQMDVCADVCQQIAGGEKAIIGVMVESHLVEGNQSLESGEPLAYGKSITDACIGWEDTDALLRQLANAVKARRG
# B12: Outer membrane porin C wild type, P06996 (protein)
# chain: MKVKVLSLLVPALLVAGAANAAEVYNKDGNKLDLYGKVDGLHYFSDNKDVDGDQTYMRLGFKGETQVTDQLTGYGQWEYQIQGNSAENENNSWTRVAFAGLKFQDVGSFDYGRNYGVVYDVTSWTDVLPEFGGDTYGSDNFMQQRGNGFATYRNTDFFGLVDGLNFAVQYQGKNGNPSGEGFTSGVTNNGRDALRQNGDGVGGSITYDYEGFGIGGAISSSKRTDAQNTAAYIGNGDRAETYTGGLKYDANNIYLAAQYTQTYNATRVGSLGWANKAQNFEAVAQYQFDFGLRPSLAYLQSKGKNLGRGYDDEDILKYVDVGATYYFNKNMSTYVDYKINLLDDNQFTRDAGINTDNIVALGLVYQF
# B13: Selenide, water dikinase wild type, P16456 (protein)
# chain: MSENSIRLTQYSHGAGCGCKISPKVLETILHSEQAKFVDPNLLVGNETRDDAAVYDLGNGTSVISTTDFFMPIVDNPFDFGRIAATNAISDIFAMGGKPIMAIAILGWPINKLSPEIAREVTEGGRYACRQAGIALAGGHSIDAPEPIFGLAVTGIVPTERVKKNSTAQAGCKLFLTKPLGIGVLTTAEKKSLLKPEHQGLATEVMCRMNIAGASFANIEGVKAMTDVTGFGLLGHLSEMCQGAGVQARVDYEAIPKLPGVEEYIKLGAVPGGTERNFASYGHLMGEMPREVRDLLCDPQTSGGLLLAVMPEAENEVKATAAEFGIELTAIGELVPARGGRAMVEIR
# B14: Fructose-1,6-bisphosphatase class 1 wild type, P0A993 (protein)
# chain: MKTLGEFIVEKQHEFSHATGELTALLSAIKLGAKIIHRDINKAGLVDILGASGAENVQGEVQQKLDLFANEKLKAALKARDIVAGIASEEEDEIVVFEGCEHAKYVVLMDPLDGSSNIDVNVSVGTIFSIYRRVTPVGTPVTEEDFLQPGNKQVAAGYVVYGSSTMLVYTTGCGVHAFTYDPSLGVFCLCQERMRFPEKGKTYSINEGNYIKFPNGVKKYIKFCQEEDKSTNRPYTSRYIGSLVADFHRNLLKGGIYLYPSTASHPDGKLRLLYECNPMAFLAEQAGGKASDGKERILDIIPETLHQRRSFFVGNDHMVEDVERFIREFPDA
# B15: 5-amino-6-(5-phospho-D-ribitylamino)uracil phosphatase YbjI wild type, P75809 (protein)
# chain: MSIKLIAVDMDGTFLSDQKTYNRERFMAQYQQMKAQGIRFVVASGNQYYQLISFFPEIANEIAFVAENGGWVVSEGKDVFNGELSKDAFATVVEHLLTRPEVEIIACGKNSAYTLKKYDDAMKTVAEMYYHRLEYVDNFDNLEDIFFKFGLNLSDELIPQVQKALHEAIGDIMVSVHTGNGSIDLIIPGVHKANGLRQLQKLWGIDDSEVVVFGDGGNDIEMLRQAGFSFAMENAGSAVVAAAKYRAGSNNREGVLDVIDKVLKHEAPFDQ
# B16: Probable ketoamine kinase YniA wild type, P77739 (protein)
# chain: MWQAISRLLSEQLGEGEIELRNELPGGEVHAAWHLRYAGHDFFVKCDERELLPGFTAEADQLELLSRSKTVTVPKVWAVGADRDYSFLVMDYLPPRPLDAHSAFILGQQIARLHQWSDQPQFGLDFDNALSTTPQPNTWQRRWSTFFAEQRIGWQLELAAEKGIAFGNIDAIVEHIQQRLASHQPQPSLLHGDLWSGNCALGPDGPYIFDPACYWGDRECDLAMLPLHTEQPPQIYDGYQSVSPLPADFLERQPVYQLYTLLNRARLFGGQHLVIAQQSLDRLLAA
# Settings: Escherichia coli (strain K12); pH 7.5; Thermal; Intensity; HEPES 20mM; transition: 2; whole UniProt chain shown
row,Protein,Tm [°C]
1,B1,42.6
2,B2,41.6
3,B3,44.1
4,B4,42.4
5,B5,42.1
6,B6,42.3
7,B7,41.3
8,B8,42.6
9,B9,41.8
10,B10,43.5
11,B11,41.7
12,B12,43.5
13,B13,41.7
14,B14,42.4
15,B15,41.2
16,B16,40.4
